Test [1] deals with HA1 F1 (aa 11-329) displayed on yeast as Aga2 fusion (Influenza A virus H5, Re8 vaccine …, UniProt Q9Q0U6, strain). The test can be described thus: immunostaining of cells or tissue. The following applies: one partner purified.
Test [2] addresses HA1 fragment F7 (aa 50-271) displayed on yeast as Aga2 fusion (Influenza A virus H5, Re8 vaccine …, UniProt Q9Q0U6, strain). Briefly: immunostaining of cells or tissue. The following applies: one partner purified.

B1: Nb10 with Twin-Strep-tag (VHH)
VHH: QVQLQESGGGSVQAGGSLRLSCSASEYTRSMAWFRQVPGKEREGVAAIDTGNGNTYYPTVDGRFIISRGNAKNSVDLEMNSLTPDDTAIYYCAATQGPLWPTLGTQFSTESYNYWGQGTLVTVSS
With B1, the binding result in test [1] and in test [2] was “binds” in each case.

The values are drawn from PMC12090751 (Journal of Virology, 2025).
